# Source: US20230406885A1, “CYCLIC PEPTIDES FOR TRAPPING INTERLEUKIN-1 BETA” (MERCK SHARP & DOHME LLC, priority 2022, published 2023)
# *1 amine or outer side, *2 acyl side, *3 side chain or, on linkers, in order; H or OH if unused. [ ]: non-standard residue; d: D form. 3AzaPhe4AcPip = (S)-3-(6-(4-acetylpiperazin-1-yl)pyridin-3-yl)-2-aminopropanoic acid, CC(=O)N1CCN(c2ccc(C[C@H](N[*:1])C(=O)[*:2])cn2)CC1; Trp(4-Cl)(βS-Me) = C[C@@H](c1c[nH]c2cccc(Cl)c12)[C@H](N)C(=O)O; Pro(trans-4-NH2) = O=C([C@@H]1C[C@@H](N[*:3])CN1[*:1])[*:2]; Bip(4'-COOH) = N[C@@H](Cc1ccc(-c2ccc(C(=O)O)cc2)cc1)C(=O)O; 1Nal(3S-Me) = C[C@@H](c1cccc2ccccc12)[C@H](N)C(=O)O; Phe(4-COOH) = N[C@@H](Cc1ccc(C(=O)O)cc1)C(=O)O; Phe(4-CH2NH2) = NCc1ccc(C[C@H](N)C(=O)O)cc1; Phe(3-NH2) = Nc1cccc(C[C@H](N)C(=O)O)c1; Phe(4-NH2) = Nc1ccc(C[C@H](N)C(=O)O)cc1; hTyr = N[C@@H](CCc1ccc(O)cc1)C(=O)O; dDab = NCC[C@@H](N)C(=O)O; dNMeA = CN[C@H](C)C(=O)O; Dap = NC[C@H](N)C(=O)O
# Molecular target: Recombinant human IL-1β (BioLegend 579404) (human, UniProt P01584 117-269)
# Assay: cell-based or functional assay
row,Binder,MRC5 IC50
1,cyclo([Bip(4'-COOH)]W[Phe(4-COOH)]G[Pro(trans-4-NH2)][Trp(4-Cl)(βS-Me)]D[dNMeA]G[Bip(4'-COOH)][Phe(3-NH2)]S[dA][hTyr]) (SMILES C[C@@H]1C(=O)NCC(=O)N[C@@H](Cc2ccc(-c3ccc(C(=O)O)cc3)cc2)C(=O)N[C@@H](Cc2cccc(N)c2)C(=O)N[C@@H](CO)C(=O)N[C@H](C)C(=O)N[C@@H](CCc2ccc(O)cc2)C(=O)N[C@@H](Cc2ccc(-c3ccc(C(=O)O)cc3)cc2)C(=O)N[C@@H](Cc2c[nH]c3ccccc23)C(=O)N[C@@H](Cc2ccc(C(=O)O)cc2)C(=O)NCC(=O)N2C[C@H](N)C[C@H]2C(=O)N[C@@H]([C@@H](C)c2c[nH]c3cccc(Cl)c23)C(=O)N[C@@H](CC(=O)O)C(=O)N1C) [SEQ ID NO: 50],520 pM
2,cyclo([3AzaPhe4AcPip]W[Phe(4-COOH)]G[Pro(trans-4-NH2)][1Nal(3S-Me)]D[dNMeA]G[Bip(4'-COOH)]W[Dap][dA][hTyr]) (SMILES CC(=O)N1CCN(c2ccc(C[C@@H]3NC(=O)[C@H](CCc4ccc(O)cc4)NC(=O)[C@@H](C)NC(=O)[C@H](CN)NC(=O)[C@H](Cc4c[nH]c5ccccc45)NC(=O)[C@H](Cc4ccc(-c5ccc(C(=O)O)cc5)cc4)NC(=O)CNC(=O)[C@@H](C)N(C)C(=O)[C@H](CC(=O)O)NC(=O)[C@H]([C@@H](C)c4cccc5ccccc45)NC(=O)[C@@H]4C[C@@H](N)CN4C(=O)CNC(=O)[C@H](Cc4ccc(C(=O)O)cc4)NC(=O)[C@H](Cc4c[nH]c5ccccc45)NC3=O)cn2)CC1) [SEQ ID NO: 5],674 pM
3,cyclo([Bip(4'-COOH)]W[Phe(4-COOH)]G[Pro(trans-4-NH2)][Trp(4-Cl)(βS-Me)]D[dNMeA]G[Bip(4'-COOH)][Phe(4-CH2NH2)]S[dA][hTyr]) (SMILES C[C@@H]1C(=O)NCC(=O)N[C@@H](Cc2ccc(-c3ccc(C(=O)O)cc3)cc2)C(=O)N[C@@H](Cc2ccc(CN)cc2)C(=O)N[C@@H](CO)C(=O)N[C@H](C)C(=O)N[C@@H](CCc2ccc(O)cc2)C(=O)N[C@@H](Cc2ccc(-c3ccc(C(=O)O)cc3)cc2)C(=O)N[C@@H](Cc2c[nH]c3ccccc23)C(=O)N[C@@H](Cc2ccc(C(=O)O)cc2)C(=O)NCC(=O)N2C[C@H](N)C[C@H]2C(=O)N[C@@H]([C@@H](C)c2c[nH]c3cccc(Cl)c23)C(=O)N[C@@H](CC(=O)O)C(=O)N1C) [SEQ ID NO: 51],320 pM
4,cyclo([Bip(4'-COOH)]W[Phe(4-COOH)]G[Pro(trans-4-NH2)][Trp(4-Cl)(βS-Me)]D[dNMeA]G[Bip(4'-COOH)][Phe(4-NH2)]S[dA][hTyr]) (SMILES C[C@@H]1C(=O)NCC(=O)N[C@@H](Cc2ccc(-c3ccc(C(=O)O)cc3)cc2)C(=O)N[C@@H](Cc2ccc(N)cc2)C(=O)N[C@@H](CO)C(=O)N[C@H](C)C(=O)N[C@@H](CCc2ccc(O)cc2)C(=O)N[C@@H](Cc2ccc(-c3ccc(C(=O)O)cc3)cc2)C(=O)N[C@@H](Cc2c[nH]c3ccccc23)C(=O)N[C@@H](Cc2ccc(C(=O)O)cc2)C(=O)NCC(=O)N2C[C@H](N)C[C@H]2C(=O)N[C@@H]([C@@H](C)c2c[nH]c3cccc(Cl)c23)C(=O)N[C@@H](CC(=O)O)C(=O)N1C) [SEQ ID NO: 52],454 pM

# Further lines, results first:
row,MRC5 IC50,Binder
1,69.2 pM,cyclo([Bip(4'-COOH)]W[Phe(4-COOH)]G[Pro(trans-4-NH2)][Trp(4-Cl)(βS-Me)]D[dNMeA]G[Bip(4'-COOH)]WG[dDab][hTyr]) (SMILES C[C@@H]1C(=O)NCC(=O)N[C@@H](Cc2ccc(-c3ccc(C(=O)O)cc3)cc2)C(=O)N[C@@H](Cc2c[nH]c3ccccc23)C(=O)NCC(=O)N[C@H](CCN)C(=O)N[C@@H](CCc2ccc(O)cc2)C(=O)N[C@@H](Cc2ccc(-c3ccc(C(=O)O)cc3)cc2)C(=O)N[C@@H](Cc2c[nH]c3ccccc23)C(=O)N[C@@H](Cc2ccc(C(=O)O)cc2)C(=O)NCC(=O)N2C[C@H](N)C[C@H]2C(=O)N[C@@H]([C@@H](C)c2c[nH]c3cccc(Cl)c23)C(=O)N[C@@H](CC(=O)O)C(=O)N1C) [SEQ ID NO: 54]
2,87.3 pM,cyclo([Bip(4'-COOH)]W[Phe(4-COOH)]G[Pro(trans-4-NH2)][Trp(4-Cl)(βS-Me)]Q[dNMeA]G[Bip(4'-COOH)]WG[dDab][hTyr]) (SMILES C[C@@H]1C(=O)NCC(=O)N[C@@H](Cc2ccc(-c3ccc(C(=O)O)cc3)cc2)C(=O)N[C@@H](Cc2c[nH]c3ccccc23)C(=O)NCC(=O)N[C@H](CCN)C(=O)N[C@@H](CCc2ccc(O)cc2)C(=O)N[C@@H](Cc2ccc(-c3ccc(C(=O)O)cc3)cc2)C(=O)N[C@@H](Cc2c[nH]c3ccccc23)C(=O)N[C@@H](Cc2ccc(C(=O)O)cc2)C(=O)NCC(=O)N2C[C@H](N)C[C@H]2C(=O)N[C@@H]([C@@H](C)c2c[nH]c3cccc(Cl)c23)C(=O)N[C@@H](CCC(N)=O)C(=O)N1C) [SEQ ID NO: 57]
3,20.7 pM,cyclo([Bip(4'-COOH)]W[Phe(4-COOH)]G[Pro(trans-4-NH2)][Trp(4-Cl)(βS-Me)]N[dNMeA]G[Bip(4'-COOH)]WG[dDab][hTyr]) (SMILES C[C@@H]1C(=O)NCC(=O)N[C@@H](Cc2ccc(-c3ccc(C(=O)O)cc3)cc2)C(=O)N[C@@H](Cc2c[nH]c3ccccc23)C(=O)NCC(=O)N[C@H](CCN)C(=O)N[C@@H](CCc2ccc(O)cc2)C(=O)N[C@@H](Cc2ccc(-c3ccc(C(=O)O)cc3)cc2)C(=O)N[C@@H](Cc2c[nH]c3ccccc23)C(=O)N[C@@H](Cc2ccc(C(=O)O)cc2)C(=O)NCC(=O)N2C[C@H](N)C[C@H]2C(=O)N[C@@H]([C@@H](C)c2c[nH]c3cccc(Cl)c23)C(=O)N[C@@H](CC(N)=O)C(=O)N1C) [SEQ ID NO: 56]
4,41.8 pM,cyclo([Bip(4'-COOH)]W[Phe(4-COOH)]G[Pro(trans-4-NH2)][Trp(4-Cl)(βS-Me)]D[dNMeA]G[Bip(4'-COOH)]W[Dap][dA][hTyr]) (SMILES C[C@@H]1C(=O)NCC(=O)N[C@@H](Cc2ccc(-c3ccc(C(=O)O)cc3)cc2)C(=O)N[C@@H](Cc2c[nH]c3ccccc23)C(=O)N[C@@H](CN)C(=O)N[C@H](C)C(=O)N[C@@H](CCc2ccc(O)cc2)C(=O)N[C@@H](Cc2ccc(-c3ccc(C(=O)O)cc3)cc2)C(=O)N[C@@H](Cc2c[nH]c3ccccc23)C(=O)N[C@@H](Cc2ccc(C(=O)O)cc2)C(=O)NCC(=O)N2C[C@H](N)C[C@H]2C(=O)N[C@@H]([C@@H](C)c2c[nH]c3cccc(Cl)c23)C(=O)N[C@@H](CC(=O)O)C(=O)N1C) [SEQ ID NO: 53]
5,49.3 pM,cyclo([Bip(4'-COOH)]W[Phe(4-COOH)]G[Pro(trans-4-NH2)][Trp(4-Cl)(βS-Me)]E[dNMeA]G[Bip(4'-COOH)]WG[dDab][hTyr]) (SMILES C[C@@H]1C(=O)NCC(=O)N[C@@H](Cc2ccc(-c3ccc(C(=O)O)cc3)cc2)C(=O)N[C@@H](Cc2c[nH]c3ccccc23)C(=O)NCC(=O)N[C@H](CCN)C(=O)N[C@@H](CCc2ccc(O)cc2)C(=O)N[C@@H](Cc2ccc(-c3ccc(C(=O)O)cc3)cc2)C(=O)N[C@@H](Cc2c[nH]c3ccccc23)C(=O)N[C@@H](Cc2ccc(C(=O)O)cc2)C(=O)NCC(=O)N2C[C@H](N)C[C@H]2C(=O)N[C@@H]([C@@H](C)c2c[nH]c3cccc(Cl)c23)C(=O)N[C@@H](CCC(=O)O)C(=O)N1C) [SEQ ID NO: 55]
